Consider two proteins from article PMC6771166.

This data set in a line: 5′-nucleotidase kit, transfected PLC/PRF/5 lysates. The note with it: glycan lost; control: wild type.

B1: CD73 (ecto‐5′‐nucleotidase): N311Q (protein)
parent chain: MCPRAARAPATLLLALGAVLWPAAGAWELTILHTNDVHSRLEQTSEDSSKCVNASRCMGGVARLFTKVQQIRRAEPNVLLLDAGDQYQGTIWFTVYKGAEVAHFMNALRYDAMALGNHEFDNGVEGLIEPLLKEAKFPILSANIKAKGPLASQISGLYLPYKVLPVGDEVVGIVGYTSKETPFLSNPGTNLVFEDEITALQPEVDKLKTLNVNKIIALGHSGFEMDKLIAQKVRGVDVVVGGHSNTFLYTGNPPSKEVPAGKYPFIVTSDDGRKVPVVQAYAFGKYLGYLKIEFDERGNVISSHGNPILLNSSIPEDPSIKADINKWRIKLDNYSTQELGKTIVYLDGSSQSCRFRECNMGNLICDAMINNNLRHTDEMFWNHVSMCILNGGGIRSPIDERNNGTITWENLAAVLPFGGTFDLVQLKGSTLKKAFEHSVHRYGQSTGEFLQVGGIHVVYDLSRKPGDRVVKLDVLCTKCRVPSYDPLKMDEVYKVILPNFLANGGDGFQMIKDELLRHDSGDQDINVVSTYISKMKVIYPAVEGRIKFSTGSHCHGSFSLIFLSLWAVIFVLYQ
As to B1, the “enzymatic_activity, percent_of_wt” value is “decreases”.

B2: CD73 (ecto‐5′‐nucleotidase): N333Q (protein)
parent chain: B1 parent chain
With B2, the “enzymatic_activity, percent_of_wt” value is listed as “decreases”.
